From publication PMC11220742

Key:
[1] = target: HLA-A*2601 H chain (extracellular domain) refolded with human β2-microglobulin; experiment: in vitro refolding, gel filtration; settings: parent: est. 300; read off a plot
[2] = target: HLA-A*0101 H chain (extracellular domain) refolded with human β2-microglobulin; experiment: in vitro refolding, gel filtration; settings: parent: est. 230; read off a plot

Row | Substance | response [1] | response [2]
1 | EVF peptide (SARS-CoV-2 S 340–351) E1A | 290 mAU | 
2 | EVF peptide (SARS-CoV-2 S 340–351) E1R | 100 mAU | 
3 | EVF peptide (SARS-CoV-2 S 340–351) F3D |  | 330 mAU
